Tests used:
Assay in all cases: cell-based or functional assay
human zcytor19 (human) = target: human zcytor19 (human)
[1] = target: zcytoR19 and IL10Rb (CRF2-4) coexpressed on BHK cells (human)
IL10Rb (CRF2-4) (human) = IL10Rb (CRF2-4) (human) (UniProt Q08334)
Chain of IL10Rb (CRF2-4) (human) (Q08334 20-325 limits assumed, form in doubt): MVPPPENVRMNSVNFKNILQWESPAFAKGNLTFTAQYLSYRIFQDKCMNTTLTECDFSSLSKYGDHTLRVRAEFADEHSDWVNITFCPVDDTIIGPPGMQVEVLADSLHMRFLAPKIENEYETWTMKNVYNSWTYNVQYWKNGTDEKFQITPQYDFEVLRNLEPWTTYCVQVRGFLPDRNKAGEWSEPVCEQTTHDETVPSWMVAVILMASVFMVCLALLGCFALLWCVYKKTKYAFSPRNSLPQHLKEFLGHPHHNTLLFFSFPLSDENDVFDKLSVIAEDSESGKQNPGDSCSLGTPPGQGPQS

huIL10 (from UniProt P22301 19-178) (ligand)
ISRE-luciferase fold induction; 293 cells transfected with ISRE-Luc./Zcytor19; HuIL 10 100ng/ml (fold induction) (human zcytor19 (human)): 0.5

zcyto10 (from UniProt Q9NYY1 25-176) (ligand)
ISRE-luciferase fold induction; 293 cells transfected with ISRE-Luc./Zcytor19; Zcyto10 125ng/ml (fold induction) (human zcytor19 (human)): 1

zcyto20 (ligand)
ISRE-luciferase fold induction; BHK cells transfected with zcytoR19 and IL10Rb (CRF2-4); zcyto20 0.001 ng/ml (fold induction) [1]: 1.5 | ISRE-luciferase fold induction; BHK cells transfected with zcytoR19 and IL10Rb (CRF2-4); zcyto20 0.01 ng/ml (fold induction) [1]: 1.6 | ISRE-luciferase fold induction; BHK cells transfected with zcytoR19 and IL10Rb (CRF2-4); zcyto20 0.1 ng/ml (fold induction) [1]: 2.1 | ISRE-luciferase fold induction; BHK cells transfected with zcytoR19 and IL10Rb (CRF2-4); zcyto20 1 ng/ml (fold induction) [1]: 2.5 | ISRE-luciferase fold induction; BHK cells transfected with zcytoR19 and IL10Rb (CRF2-4); zcyto20 10 ng/ml (fold induction) [1]: 2.4 | ISRE-luciferase fold induction; BHK cells transfected with zcytoR19 and IL10Rb (CRF2-4); zcyto20 100 ng/ml (fold induction) [1]: 2.6 | ISRE-luciferase fold induction; BHK cells transfected with zcytoR19 and IL10Rb (CRF2-4); zcyto20 1000 ng/ml (fold induction) [1]: 2.1 | ISRE-luciferase fold induction; wild-type 293 cells; Zcyto20 0.01 ng/ml; + IL10Rb neutralizing antibody (8 ug/ml) (fold induction) (IL10Rb (CRF2-4) (human)): 0.8 | ISRE-luciferase fold induction; wild-type 293 cells; Zcyto20 0.01 ng/ml; no antibody (fold induction) (IL10Rb (CRF2-4) (human)): 1 | ISRE-luciferase fold induction; wild-type 293 cells; Zcyto20 0.1 ng/ml; + IL10Rb neutralizing antibody (8 ug/ml) (fold induction) (IL10Rb (CRF2-4) (human)): 1 | ISRE-luciferase fold induction; wild-type 293 cells; Zcyto20 0.1 ng/ml; no antibody (fold induction) (IL10Rb (CRF2-4) (human)): 1 | ISRE-luciferase fold induction; wild-type 293 cells; Zcyto20 1 ng/ml; + IL10Rb neutralizing antibody (8 ug/ml) (fold induction) (IL10Rb (CRF2-4) (human)): 0.9 | ISRE-luciferase fold induction; wild-type 293 cells; Zcyto20 1 ng/ml; no antibody (fold induction) (IL10Rb (CRF2-4) (human)): 1 | ISRE-luciferase fold induction; wild-type 293 cells; Zcyto20 10 ng/ml; + IL10Rb neutralizing antibody (8 ug/ml) (fold induction) (IL10Rb (CRF2-4) (human)): 0.9 | ISRE-luciferase fold induction; wild-type 293 cells; Zcyto20 10 ng/ml; no antibody (fold induction) (IL10Rb (CRF2-4) (human)): 4 | ISRE-luciferase fold induction; wild-type 293 cells; Zcyto20 100 ng/ml; + IL10Rb neutralizing antibody (8 ug/ml) (fold induction) (IL10Rb (CRF2-4) (human)): 0.8 | ISRE-luciferase fold induction; wild-type 293 cells; Zcyto20 100 ng/ml; no antibody (fold induction) (IL10Rb (CRF2-4) (human)): 8.4 | ISRE-luciferase fold induction; zcytoR19-overexpressing 293 cells; Zcyto20 0.01 ng/ml; + IL10Rb neutralizing antibody (8 ug/ml) (fold induction) (IL10Rb (CRF2-4) (human)): 1.2 | ISRE-luciferase fold induction; zcytoR19-overexpressing 293 cells; Zcyto20 0.01 ng/ml; no antibody (fold induction) (IL10Rb (CRF2-4) (human)): 1.1 | ISRE-luciferase fold induction; zcytoR19-overexpressing 293 cells; Zcyto20 0.1 ng/ml; + IL10Rb neutralizing antibody (8 ug/ml) (fold induction) (IL10Rb (CRF2-4) (human)): 1.1 | ISRE-luciferase fold induction; zcytoR19-overexpressing 293 cells; Zcyto20 0.1 ng/ml; no antibody (fold induction) (IL10Rb (CRF2-4) (human)): 6 | ISRE-luciferase fold induction; zcytoR19-overexpressing 293 cells; Zcyto20 1 ng/ml; + IL10Rb neutralizing antibody (8 ug/ml) (fold induction) (IL10Rb (CRF2-4) (human)): 1.3 | ISRE-luciferase fold induction; zcytoR19-overexpressing 293 cells; Zcyto20 1 ng/ml; no antibody (fold induction) (IL10Rb (CRF2-4) (human)): 68 | ISRE-luciferase fold induction; zcytoR19-overexpressing 293 cells; Zcyto20 10 ng/ml; + IL10Rb neutralizing antibody (8 ug/ml) (fold induction) (IL10Rb (CRF2-4) (human)): 23 | ISRE-luciferase fold induction; zcytoR19-overexpressing 293 cells; Zcyto20 10 ng/ml; no antibody (fold induction) (IL10Rb (CRF2-4) (human)): 97 | ISRE-luciferase fold induction; zcytoR19-overexpressing 293 cells; Zcyto20 100 ng/ml; + IL10Rb neutralizing antibody (8 ug/ml) (fold induction) (IL10Rb (CRF2-4) (human)): 60 | ISRE-luciferase fold induction; zcytoR19-overexpressing 293 cells; Zcyto20 100 ng/ml; no antibody (fold induction) (IL10Rb (CRF2-4) (human)): 91 | ISRE-luciferase fold induction; 293 cells transfected with ISRE-Luc./Zcytor19; Zcyto20 125ng/ml (fold induction) (human zcytor19 (human)): 125 | ISRE-luciferase fold induction; BHK cells transfected with zcytoR19 alone; zcyto20 0.001 ng/ml (fold induction) (human zcytor19 (human)): 1.4 | ISRE-luciferase fold induction; BHK cells transfected with zcytoR19 alone; zcyto20 0.01 ng/ml (fold induction) (human zcytor19 (human)): 1.2 | ISRE-luciferase fold induction; BHK cells transfected with zcytoR19 alone; zcyto20 0.1 ng/ml (fold induction) (human zcytor19 (human)): 1.25 | ISRE-luciferase fold induction; BHK cells transfected with zcytoR19 alone; zcyto20 1 ng/ml (fold induction) (human zcytor19 (human)): 1.3 | ISRE-luciferase fold induction; BHK cells transfected with zcytoR19 alone; zcyto20 10 ng/ml (fold induction) (human zcytor19 (human)): 2.1 | ISRE-luciferase fold induction; BHK cells transfected with zcytoR19 alone; zcyto20 100 ng/ml (fold induction) (human zcytor19 (human)): 2.2 | ISRE-luciferase fold induction; BHK cells transfected with zcytoR19 alone; zcyto20 1000 ng/ml (fold induction) (human zcytor19 (human)): 2.25

Source: EP1942187B1
